Assay results: patent publication US20110243955A1 (FUSION ANTIBODIES, published 2011)

Tests used:
[1] = molecular target: T1, human cathepsin L (recombinant) (human, UniProt P07711 114-333, limits assumed); test: western blot of recombinant cathepsins
T1 construct: Called 'purified CatL' in the activity assay; also called CatL; Cat L
Procedure: (§1) FIG. 15 MAb1 specifically binds Cat S on western blot. The antibody was used to probe against human cathepsin B, L, S and K (100 ng each).
(§2) Western blots were performed as described before to show specificity of the antibody binding to Cat S and not to CatB, L or K. Briefly, 100 ng of recombinant Cat S, K, L and B were loaded onto a SDS-PAGE gel, then transferred onto Hybond-C Extra nitrocellulose membrane (Amersham. Biosciences). The membrane was blocked by incubation in PBS/5% marvel for 1 hr at room temperature, after which it was rinsed briefly in PBS. The monoclonal antibodies were used at a 1:500 dilution in PBS and incubated on the membrane overnight at 4° C. while gently rocking. The blot was then rinsed three times with PBS/1% marvel and 0.1% Tween-20 and then incubated with the goat anti-mouse HRP conjugated secondary antibody at a 1:3000 dilution for 1 hr at room temperature while shaking. The blot was then rinsed three times with the PBS/1% marvel and 0.1% Tween-20 solution, followed by a short rinse in PBS. The blot was incubated with ECL plus substrate (Amersham Biosciences) for 5 mins at room temperature before development using Kodak photographic film under safe light conditions (FIG. 15).

[2] = molecular target: T2, human cathepsin K (recombinant) (human, UniProt P43235 115-329, limits assumed); test: western blot of recombinant cathepsins
T2 construct: Called 'purified CatK' in the activity assay; also called CatK; Cat K
T2 sequence (looked up): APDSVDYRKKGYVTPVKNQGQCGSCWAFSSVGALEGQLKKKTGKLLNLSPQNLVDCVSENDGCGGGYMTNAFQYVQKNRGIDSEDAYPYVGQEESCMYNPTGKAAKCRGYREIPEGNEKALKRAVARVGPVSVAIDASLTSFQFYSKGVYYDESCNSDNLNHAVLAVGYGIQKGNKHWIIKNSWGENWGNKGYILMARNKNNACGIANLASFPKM
Procedure: as §1, §2

[3] = molecular target: human cathepsin B (recombinant) (human, UniProt P07858 80-333); test: western blot of recombinant cathepsins
Procedure: as §1, §2

[4] = molecular target: T3, recombinant human Cat S (Calbiochem) (human, UniProt P25774 115-331, limits assumed); test: fluorimetric enzyme assay with Cbz-Val-Val-Arg-AMC; progress curves of a slow-binding inhibitor fitted by non-linear regression (Morrison and Walsh, GraFit)
T3 construct: Bought enzyme used in the fluorimetric activity assays; also called cathepsin S
T3 sequence (P25774 115-331 limits assumed): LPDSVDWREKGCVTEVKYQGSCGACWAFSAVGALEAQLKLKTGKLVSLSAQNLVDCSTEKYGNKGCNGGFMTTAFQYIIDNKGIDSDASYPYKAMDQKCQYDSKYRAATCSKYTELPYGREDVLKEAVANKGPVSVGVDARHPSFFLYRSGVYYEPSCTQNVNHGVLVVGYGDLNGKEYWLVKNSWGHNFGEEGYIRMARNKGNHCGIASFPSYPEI
Procedure: FIG. 12. Quantification of inhibitory activity of Cat S MAb1 (Mab 1E11). Rates from the progress curves of (Mab 1E11) [FIG. 11], which were indicative of a slow binding inhibitor, were fitted by non-linear regression using GraFit software according to the method of Morrison and Walsh, 1988.
The inhibitory effect of the monoclonal antibodies were determined by a flurometric assay, using a Cat S synthetic substrate Z-Val-Val-Arg-AMC (Bachem) and recombinant human Cat S (Calbiochem). The recombinant Cat S enzyme was activated at 37° C. in sodium acetate buffer (100 mM sodium acetate, 1 mM EDTA, 0.1% Brij90, pH 5.5), and 2 mM dithiothreitol (DTT) for 30 mins prior to assay. Assays were carried out using 190 μl of sodium acetate/DTT buffer (90:1), 1 μl of activated Cat S, 12.5 μl of 10 mM Cbz-Val-Val-Arg-AMC substrate and 50 μl of non-purified monoclonal antibody supernatant. Fluorescence was measured at 375 nm excitation and 460 nm emission wavelengths every 5 mins for 4 hrs (FIG. 8). […]
The purified monoclonal antibodies were analysed by flurometric assay for quantification of their ability to inhibit the activity of Cat S. The principles of this assay are the same as that previously used. Fluorescence was measured at 375 nm excitation and 460 nm emission wavelengths every minute for 1 hr. […]

T1 sequence (P07711 114-333 limits assumed): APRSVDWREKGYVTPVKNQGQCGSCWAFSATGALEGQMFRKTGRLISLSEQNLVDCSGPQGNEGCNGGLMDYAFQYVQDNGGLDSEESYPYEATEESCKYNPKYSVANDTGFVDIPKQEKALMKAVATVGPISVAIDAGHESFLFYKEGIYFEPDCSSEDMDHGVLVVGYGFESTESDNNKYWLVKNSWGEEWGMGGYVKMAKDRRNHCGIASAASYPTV

- binding result [1]: no binding
- binding result [2]: no binding
- binding result [3]: no binding
- Ki [4]: 533 nM
B1: Cat S inhibitory monoclonal antibody Mab 1E11 (antibody, V domains shown)
VH: VQLQESGGVLVKPGGSLKLSCAASGFAFSSYDMSWVRQTPEKRLEWVAYITTGGVNTYYPDTVKGRFTISRDNAKNTLYLQMSSLKSEDTAMYYCARHSYFDYWGQGTTVTVSS
VL: DVLMTQTPLSLPVSLGDQASISCRSSQSLVHSNGNTYLHWYLQKPGQSPKLLIYKVSNRFSGVPDRFSGSGSGTDFTLKISRVEAEDLGVYFCSQTTHVPPTFGSGTKLEIKR
notes: Whole mouse monoclonal antibody from a hybridoma (BALB/C mice), purified from supernatant; also called Cat S MAb1
